Laboratory results as given in paper PMC2920321, “Characterization of ftsZ Mutations that Render Bacillus subtilis Resistant to MinC” (PLoS ONE, 2010).

B1: wild type FtsZ (Bacillus subtilis) [B. subtilis] / itself (parent)
chain: MLEFETNIDGLASIKVIGVGGGGNNAVNRMIENEVQGVEYIAVNTDAQALNLSKAEVKMQIGAKLTRGLGAGANPEVGKKAAEESKEQIEEALKGADMVFVTAGMGGGTGTGAAPVIAQIAKDLGALTVGVVTRPFTFEGRKRQLQAAGGISAMKEAVDTLIVIPNDRILEIVDKNTPMLEAFREADNVLRQGVQGISDLIATPGLINLDFADVKTIMSNKGSALMGIGIATGENRAAEAAKKAISSPLLEAAIDGAQGVLMNITGGTNLSLYEVQEAADIVASASDQDVNMIFGSVINENLKDEIVVTVIATGFIEQEKDVTKPQRPSLNQSIKTHNQSVPKREPKREEPQQQNTVSRHTSQPADDTLDIPTFLRNRNKRG

Variants of: B1
Test: sedimentation assay (ultracentrifugation)
Conditions: with itself, 10 µM FtsZ, 50 mM Hepes/NaOH, 50 mM KCl, 10 mM MgCl2, pH 7.5, 30°C, 5 min, read off a plot

response (% FtsZ in pellet) (1 mM GDP (control)) | response (% FtsZ in pellet) (1 mM GTP) | Variant
28 | 25 | chain 1 A285T
16 | 51 | chain 1 S219L
18 | 29 | chain 1 L302P Q353R
